Laboratory results as given in patent EP4671273A1.

Assays:
[1] = target: hPD-1 expressed on Jurkat cells (human) (UniProt Q15116); assay: flow cytometry on Jurkat PD-1 cells, competitor pembrolizumab at 100x molar excess
[2] = target: hPD-1 expressed on Jurkat cells (human) (UniProt Q15116); assay: flow cytometry on Jurkat PD-1 cells, competitor nivolumab at 100x molar excess

Sequence of hPD-1 expressed on Jurkat cells (human) (Q15116 25-288): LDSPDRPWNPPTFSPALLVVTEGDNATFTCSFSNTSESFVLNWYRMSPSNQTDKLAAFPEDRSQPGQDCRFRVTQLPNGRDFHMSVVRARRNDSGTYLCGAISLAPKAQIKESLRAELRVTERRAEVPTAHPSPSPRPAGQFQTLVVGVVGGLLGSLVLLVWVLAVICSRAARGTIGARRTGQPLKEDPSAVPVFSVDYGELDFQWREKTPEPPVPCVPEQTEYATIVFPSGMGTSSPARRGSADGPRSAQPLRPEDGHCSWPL

signal inhibition in % [1]: 8.66%
signal inhibition in % [2]: 8.66%
B1: XVT458-z2-m6 (antibody, human IgG1, V domains shown)
VH: VQLVQSGAEVKKPGASVKVSCKASGYTFTNFYIHWVRQAPGQGLEWMGSIYPNYGITAYNQKFKDRVTMTVDTSTSTAYMELRSLRSDDTAVYYCARGYSYAMDYWGQGTTVTVSS
VL: DIQMTQSPSSVSASVGDRVTITCSASQGISGDLNWYQQKPGKAPKLLIYHTSQLHSDVPSRFSGSGSGTDFTLTISSLQPEDFATYYCQGYSKDLLTFGGGTKLEIK
